{"source": "patent EP3911180B1", "about": "“PAENIBACILLUS WYNNII BETA-GALACTOSIDASE FOR THE PRODUCTION OF LACTOSE-DEPLETED AND GOS-ENRICHTED DAIRY PRODUCTS” (Universität Hohenheim, priority 2019, dated 2020)", "proteins": {"B1": {"name": "P. wynnii beta-galactosidase (SEQ ID NO: 1) (Paenibacillus wynnii) (protein)", "chain": "MRKKLVYSPPTNGYPEWNNNPECFQINRMDAHATWIPFNTTEDALLGDPQSSPNYLSLNGMWKFAYAETPDQRIRNFFEKNYDCSSWAELNVPSHWQMHGYDYPQYTNVRYPWSEREPELKPPFAPTQYNPVGSYVRTFSVPEDWSGKPVFISFQGVESAFYVWLNGELVGYSEDTFTPAEFDLTPYLIPGDNKLAVEVYRWCDASWLEDQDFWRLSGIFRDVYLYTTPEAHIYDFFVRTELDEQYRHAELQLDVKLMDYFERTAEAVIVHAQLYDHDQNAIFDQPLSQTVYFNSASTQTLQFSSSIIDPLKWSAEHPNLYTLVLSLHHVDGELMEAVSCRVGFRTFELKDGLMKINGKRIVFKGVNRHEFSCDTGRSIDVDDMVRDILLMKAHNINAVRTSHYPNQTIWYDLCDQYGLYVIDETNLETHGSWSYGQTDLGGNTVPGSRPEWRANVLDRCNSMLQRDKNHPSIVIWSLGNESFGGDNFVAMHDFLKKEDPSRLVHYEGLFHYRESDVASDIESTMYISPADVEQYALNDPKKPYILCEYSHAMGNSCGGLHLYWEVFEKYDILQGAFIWDWIDQAIRLKQADGSMHMAYGGDFGESPHDGNFCGNGLIFADRSVSPKLYEVKKCYQNVKFEAVDLERGIYRVTNQNLFTDLAEYALAWEVSCNGNPVLKGTVDLAVPAGESAEISVPVVDEPNLQSEGEHVLTFSLQLKKSTLWADAGHEVAWEQFLLPTPQFMAGQDQDSVLTSDRGVIVEEQAGRLTVQAADVSLQFSTSSGYLISMQNKGKELLLEPVRPNFWRAVTDNDLGNKHHERCAVWNTAGAGCTLASFESHKNVDGVTVRAKYTVPTVPISSLILEYRIQENGSIEVFEELSPGMGLPEIPEIGLMFIVEDRLDTVSWYGRGPHENYWDRKTGARLGYFSGSVQDQFVPYIRPQECGNKTDVRFASITGGINGSGFRVDGDPVLELNALPWTPAELEANDHIYKLPASNKTVVRVNYKQMGVGGDNSWGATTHPEFTLPADQTYGFRFTIRMV"}}, "substrate": "OC[C@H]1O[C@@H](O[C@H]2[C@H](O)[C@@H](O)C(O)O[C@@H]2CO)[C@H](O)[C@@H](O)[C@H]1O", "assay": "Determination of KM with lactose as substrate", "type": "biochemical, Paenibacillus wynnii", "conditions": "8 °C", "method": "For the substrate solution 400 mM lactose was dissolved in Novo buffer (the composition of which is depicted in Table 4). The beta-galactosidase activity was determined in a thermo shaker in 1.5 mL reaction tubes at 8°C. The enzyme mix and the lactose solution were preincubated at 8 °C for 12 min. To start the enzymatic reaction 100 µL of the enzyme mix were added to 100 µL lactose solution. The reaction was carried out for 5 min at 8 °C. The reaction was stopped by adding 300 µL 1 M HClO4 to the enzyme-substrate-mix. The mix was kept on ice for 5 min before it was centrifuged at 13 000 rcf and 4 °C for 5 min. 160 µL of the supernatant were transferred to 75 µL 2 M KOH to neutralise the solution. The neutralisation step was checked using pH paper and the pH was adjusted if necessary. The solution was kept on ice for another 5 min before it was centrifuged at 13 000 rcf at 4 °C for 5 min. All assays were performed in triplicate. Table 4: Composition of Novo buffer\nThe kinetic parameters were determined using the natural substrate lactose. The reaction matrices and conditions were chosen in order to simulate conditions in milk systems. The chosen reaction matrices were Novo buffer (cf. Table 4, above) and milk diluted with Novo buffer. The reaction temperature was 8 °C and the pH value was 6.7.\nFor the determination of the KM values of P. wynnii beta-galactosidase lactose concentrations ranged from 0.76 mM to 97.5 mM. In order to obtain different lactose concentrations in milk, milk was diluted with Novo buffer. […] The enzyme activities were measured under initial reaction velocity conditions of the enzyme. The reaction times for the initial velocity of the enzymes were determined in previous experiments. The kinetic parameter KM was analysed using the Enzyme Kinetics Module in SigmaPlot 12.5 (Systat Software, Inc., San Jose, USA).\nIn the case of the studies in Novo buffer the enzyme activity decreased again with increasing lactose concentration. […] Table 6: Summary of the determined KM values using the Enzyme Kinetics Module in SigmaPlot 12.5. […]", "data": [{"protein": "B1", "values": [{"measurement": "Km", "setting": "other: Novo buffer, pH 6.7, A: evaluation according to Michaelis-Menten, pH 6.7", "value": "340 ± 84", "unit": "µM"}, {"measurement": "Km", "setting": "other: Novo buffer, pH 6.7, B: evaluation under consideration of substrate inhibition, pH 6.7", "value": "520 ± 89", "unit": "µM"}, {"measurement": "Km", "setting": "other: milk + Novo buffer", "value": 630, "unit": "µM"}]}]}
